Measurements published in patent US20170088610A1.

Tests used:
[1] = molecular target: human nerve growth factor (human), P01138
[2] = molecular target: human nerve growth factor (human), P01138; remark: listed apart in the source
[3] = molecular target: human nerve growth factor (human), P01138; assay: cell-based or functional assay

Sequence of human nerve growth factor (human), P01138 (P01138 122-241 limits assumed): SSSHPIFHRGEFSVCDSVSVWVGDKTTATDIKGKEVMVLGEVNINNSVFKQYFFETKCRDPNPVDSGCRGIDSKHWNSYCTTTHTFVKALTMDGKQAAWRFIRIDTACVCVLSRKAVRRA

B1: antibody E3 (full antibody) (antibody, human IgG2, kappa)
heavy: QVQLQESGPGLVKPSETLSLTCTVSGFSLIGYDLNWIRQPPGKGLEWIGIIWGDGTTDYNSAVKSRVTISKDTSKNQFSLKLSSVTAADTAVYYCARGGYWYATSYYFDYWGQGTLVTVSSASTKGPSVFPLAPCSRSTSESTAALGCLVKDYFPEPVTVSWNSGALTSGVHTFPAVLQSSGLYSLSSVVTVPSSNFGTQTYTCNVDHKPSNTKVDKTVERKCCVECPPCPAPPVAGPSVFLFPPKPKDTLMISRTPEVTCVVVDVSHEDPEVQFNWYVDGVEVHNAKTKPREEQFNSTFRVVSVLTVVHQDWLNGKEYKCKVSNKGLPSSIEKTISKTKGQPREPQVYTLPPSREEMTKNQVSLTCLVKGFYPSDIAVEWESNGQPENNYKTTPPMLDSDGSFFLYSKLTVDKSRWQQGNVFSCSVMHEALHNHYTQKSLSLSPGK
light: not shown
modifications: not checked
- IC50 (read off the curve), NGF-dependent survival of E13.5 mouse trigeminal neurons (0.4 ng/ml human NGF, 48 h) (nM binding sites) [1]: 0.02
- IC50 (read off the curve), NGF-dependent survival of E13.5 trigeminal neurons (0.4 ng/ml human NGF, 48 h) [2]: 8 pM
- NGF-elicited survival of E17/18 trigeminal neurons [3]: 20 nM
